Laboratory results published in article PMC13397619.

B1: NLV3 TCR beta chain (CDR3β only) (parent)
chain: ASSPTGGSPSPLH
partner: MLVPMVATV

Variants of: B1
Experiment: T-Switch: Jurkat TCRβ−/− cells expressing a CDR3 saturation-mutagenesis library, stained with two peptide-HLA-A*02:01 tetramers (original and novel peptide) plus anti-CD3, FACS-sorted into four gates, gDNA sequenced
Conditions: with HLA-A*02:01 with peptide … (NLV 3-1, the original bait), tetramers 1 µg/mL, 30 min on ice, DP and SW gates expanded about 10 days between rounds ('two to three rounds of selection' in the Methods), gate SP: higher = more of the variant in the gate that binds the original peptide and not the novel one = retained original binding. Fold enrichment of the CDR3 variant in one FACS gate of a two-tetra, unresolved parent, parent is a CDR3 fragment, scale: fold enrichment, numbering: sequential-on-construct, sequence …

How did the enrichment turn out when […] (CDR3 as printed); S3F derived by comparing it with the table's wild-type CDR3 ASSPTGGSPSPLH was run?
Its enrichment is 0.

How did the enrichment turn out when […] (CDR3 as printed); S3G derived by comparing it with the table's wild-type CDR3 ASSPTGGSPSPLH was run?
Its enrichment is 9.71.

With […] (CDR3 as printed); S3H derived by comparing it with the table's wild-type CDR3 ASSPTGGSPSPLH as the variant, how does the enrichment read?
Its enrichment is 0.783.

[…] (CDR3 as printed); S3I derived by comparing it with the table's wild-type CDR3 ASSPTGGSPSPLH was tested. Which enrichment did it give?
The enrichment was 0.

For […] (CDR3 as printed); S3K derived by comparing it with the table's wild-type CDR3 ASSPTGGSPSPLH, which enrichment is on record?
The enrichment was 0.

How did the enrichment turn out when […] (CDR3 as printed); S3L derived by comparing it with the table's wild-type CDR3 ASSPTGGSPSPLH was run?
Its enrichment is 0.

[…] (CDR3 as printed); S3M derived by comparing it with the table's wild-type CDR3 ASSPTGGSPSPLH was tested. Which enrichment did it give?
Its enrichment is 0.

Which enrichment does the source give for […] (CDR3 as printed); S3N derived by comparing it with the table's wild-type CDR3 ASSPTGGSPSPLH here?
The enrichment was 4.09.

Which enrichment does the source give for […] (CDR3 as printed); S3P derived by comparing it with the table's wild-type CDR3 ASSPTGGSPSPLH here?
The enrichment was 0.

[…] (CDR3 as printed); S3Q derived by comparing it with the table's wild-type CDR3 ASSPTGGSPSPLH was tested. Which enrichment did it give?
The enrichment was 0.

For […] (CDR3 as printed); S3R derived by comparing it with the table's wild-type CDR3 ASSPTGGSPSPLH, which enrichment is on record?
Its enrichment is 0.

For […] (CDR3 as printed); S3T derived by comparing it with the table's wild-type CDR3 ASSPTGGSPSPLH, which enrichment is on record?
Its enrichment is 10.9.

[…] (CDR3 as printed); S3V derived by comparing it with the table's wild-type CDR3 ASSPTGGSPSPLH was tested. Which enrichment did it give?
Its enrichment is 0.

For […] (CDR3 as printed); S3W derived by comparing it with the table's wild-type CDR3 ASSPTGGSPSPLH, which enrichment is on record?
The enrichment was 0.

[…] (CDR3 as printed); S3Y derived by comparing it with the table's wild-type CDR3 ASSPTGGSPSPLH was tested. Which enrichment did it give?
The enrichment was 0.

[…] (CDR3 as printed); S8A derived by comparing it with the table's wild-type CDR3 ASSPTGGSPSPLH was tested. Which enrichment did it give?
The enrichment was 11.2.

Which enrichment does the source give for […] (CDR3 as printed); S8C derived by comparing it with the table's wild-type CDR3 ASSPTGGSPSPLH here?
The enrichment was 0.

With […] (CDR3 as printed); S8D derived by comparing it with the table's wild-type CDR3 ASSPTGGSPSPLH as the variant, how does the enrichment read?
The enrichment was 0.

How did the enrichment turn out when […] (CDR3 as printed); S8E derived by comparing it with the table's wild-type CDR3 ASSPTGGSPSPLH was run?
Its enrichment is 0.

How did the enrichment turn out when […] (CDR3 as printed); S8F derived by comparing it with the table's wild-type CDR3 ASSPTGGSPSPLH was run?
Its enrichment is 0.

For […] (CDR3 as printed); S8G derived by comparing it with the table's wild-type CDR3 ASSPTGGSPSPLH, which enrichment is on record?
Its enrichment is 0.

For […] (CDR3 as printed); S8H derived by comparing it with the table's wild-type CDR3 ASSPTGGSPSPLH, which enrichment is on record?
Its enrichment is 0.

How did the enrichment turn out when […] (CDR3 as printed); S8I derived by comparing it with the table's wild-type CDR3 ASSPTGGSPSPLH was run?
The enrichment was 0.

[…] (CDR3 as printed); S8K derived by comparing it with the table's wild-type CDR3 ASSPTGGSPSPLH was tested. Which enrichment did it give?
Its enrichment is 0.

Which enrichment does the source give for […] (CDR3 as printed); S8L derived by comparing it with the table's wild-type CDR3 ASSPTGGSPSPLH here?
The enrichment was 0.

[…] (CDR3 as printed); S8M derived by comparing it with the table's wild-type CDR3 ASSPTGGSPSPLH was tested. Which enrichment did it give?
The enrichment was 0.

For […] (CDR3 as printed); S8N derived by comparing it with the table's wild-type CDR3 ASSPTGGSPSPLH, which enrichment is on record?
Its enrichment is 0.

For […] (CDR3 as printed); S8P derived by comparing it with the table's wild-type CDR3 ASSPTGGSPSPLH, which enrichment is on record?
Its enrichment is 0.

Which enrichment does the source give for […] (CDR3 as printed); S8Q derived by comparing it with the table's wild-type CDR3 ASSPTGGSPSPLH here?
Its enrichment is 0.

How did the enrichment turn out when […] (CDR3 as printed); S8R derived by comparing it with the table's wild-type CDR3 ASSPTGGSPSPLH was run?
Its enrichment is 0.

For […] (CDR3 as printed); S8T derived by comparing it with the table's wild-type CDR3 ASSPTGGSPSPLH, which enrichment is on record?
The enrichment was 0.

For […] (CDR3 as printed); S8V derived by comparing it with the table's wild-type CDR3 ASSPTGGSPSPLH, which enrichment is on record?
The enrichment was 1.71.

[…] (CDR3 as printed); S8W derived by comparing it with the table's wild-type CDR3 ASSPTGGSPSPLH was tested. Which enrichment did it give?
The enrichment was 0.

[…] (CDR3 as printed); S8Y derived by comparing it with the table's wild-type CDR3 ASSPTGGSPSPLH was tested. Which enrichment did it give?
The enrichment was 8.08.

For […] (CDR3 as printed); S10A derived by comparing it with the table's wild-type CDR3 ASSPTGGSPSPLH, which enrichment is on record?
The enrichment was 10.5.

[…] (CDR3 as printed); S10C derived by comparing it with the table's wild-type CDR3 ASSPTGGSPSPLH was tested. Which enrichment did it give?
The enrichment was 0.

How did the enrichment turn out when […] (CDR3 as printed); S10D derived by comparing it with the table's wild-type CDR3 ASSPTGGSPSPLH was run?
The enrichment was 0.543.

[…] (CDR3 as printed); S10E derived by comparing it with the table's wild-type CDR3 ASSPTGGSPSPLH was tested. Which enrichment did it give?
Its enrichment is 5.53.

For […] (CDR3 as printed); S10F derived by comparing it with the table's wild-type CDR3 ASSPTGGSPSPLH, which enrichment is on record?
Its enrichment is 0.

For […] (CDR3 as printed); S10G derived by comparing it with the table's wild-type CDR3 ASSPTGGSPSPLH, which enrichment is on record?
Its enrichment is 14.9.

For […] (CDR3 as printed); S10H derived by comparing it with the table's wild-type CDR3 ASSPTGGSPSPLH, which enrichment is on record?
Its enrichment is 0.

How did the enrichment turn out when […] (CDR3 as printed); S10I derived by comparing it with the table's wild-type CDR3 ASSPTGGSPSPLH was run?
The enrichment was 0.
